# Experimental data from the supplement of paper PMC9732359.
# ± gives the uncertainty stated by the source.
# Test: protein stability index of a GFP-peptide fusion (yeast GPS) (PSI 1-4); higher = more stable; sorted into four equal gates, so the index is relative within each strain
# Method in brief: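 Tiled 17-residue yeast protein peptides were fused downstream of GFP in a plasmid that also expresses Cherry, and the pooled library was carried in yeast. Mid-log cultures in leucine-free medium were sorted into four equal gates by GFP/Cherry fluorescence ratio, and plasmids from each gate were PCR-amplified and Illumina-sequenced, with reads assigned to strains by barcodes. The protein stability index for each peptide was each gate's read frequency times its gate number, summed.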
Sequence,protein stability index (doa10∆),protein stability index (pdr5∆),protein stability index (ubr1∆),protein stability index (san1∆)
DNWRREFLKWTPNVNVL [ISW2],1.46 ± 0.098,2.42 ± 0.12,2.31 ± 0.07,–
KFSDIIQGISKMYSDDT [BRN1],2.93 ± 0.062,2.71 ± 0.066,2.3 ± 0.085,2.14 ± 0.08
WDYLQLTVAMYINSDSV [RPO31],1.32 ± 0.071,1.34 ± 0.086,1.58 ± 0.071,1.64 ± 0.25
MDCTKEEEATMTTSAVS [YIL149C/MLP2],3.35 ± 0.08,3.24 ± 0.065,3.12 ± 0.059,3.28 ± 0.06
DLEKTERIVVSYEYYNI [SMC2],2.76 ± 0.073,2.6 ± 0.073,2.67 ± 0.045,2.71 ± 0.074
IKFGGLIIQKIPSLQNN [ECM29],1.83 ± 0.066,1.72 ± 0.066,1.83 ± 0.062,1.5 ± 0.064
ETQVLVSTPEKWDITTR [BRR2],3.17 ± 0.092,3.26 ± 0.083,3.21 ± 0.034,3.31 ± 0.053
EIAFHLTLIFYDVLHDV [YML103C/NUP188],1.26 ± 0.072,1.47 ± 0.055,1.99 ± 0.086,1.63 ± 0.17
LTRNAPLDSKDENFASV [SNF2],3.04 ± 0.08,3.2 ± 0.079,3.1 ± 0.074,3.07 ± 0.067
TISSADFIQNVGRLWDQ [ECM29],2.98 ± 0.15,3.5 ± 0.14,3.42 ± 0.061,3.39 ± 0.083
LFLEPSWSSSAAVIMRC [PCI8],1.19 ± 0.087,2.07 ± 0.093,2.39 ± 0.095,1.58 ± 0.16
FRAVGEGNAQLVAIFGG [FAS1],1.17 ± 0.043,1.55 ± 0.063,1.36 ± 0.055,1.51 ± 0.1
PTRIRTKSSKEFFNTLR [RRI2],2.73 ± 0.13,3.01 ± 0.15,2.91 ± 0.11,3.06 ± 0.081
EDEGTLNVAEIITSGRD [ARP9],3.27 ± 0.22,3.21 ± 0.15,3.29 ± 0.15,3.24 ± 0.079
EDTELYQELIKNGALVS [YJL039C/NUP192],–,2.77 ± 0.087,2.57 ± 0.069,3.21 ± 0.11
KEPKKLLPNSKNVENTK [DSN1],3.12 ± 0.17,2.74 ± 0.15,3.21 ± 0.083,2.59 ± 0.14
AQNQGGQVSMSQFNGSG [PGD1],3.42 ± 0.12,3.29 ± 0.12,3.23 ± 0.076,2.93 ± 0.081
TQTGLLQDLEEAKSFQD [RPC82],2.27 ± 0.25,2.46 ± 0.12,2.59 ± 0.11,2.13 ± 0.14
VNGSTTAGVGSTPNFGG [SIN4],3.58 ± 0.079,3.33 ± 0.095,3.25 ± 0.077,3.4 ± 0.078
IKLNGSTLLCTDLESKS [SNU114],2.67 ± 0.06,2.73 ± 0.058,2.82 ± 0.063,2.54 ± 0.056
ILHTKESSNEAKKTIQN [SIR4],2.74 ± 0.056,2.21 ± 0.058,2.73 ± 0.054,2.73 ± 0.069
VFDTAITSWYENHNKGK [QCR9],2.49 ± 0.16,2.96 ± 0.12,2.15 ± 0.073,2.65 ± 0.1
PIEVDEELLQLFLNNFV [IRR1],2.93 ± 0.063,2.86 ± 0.071,3.18 ± 0.058,2.97 ± 0.054
QTSLVRMFEKNVMLNIY [SKI6],–,3.17 ± 0.11,3.12 ± 0.076,3.29 ± 0.13
EDKRKVRSAEYYAKKRA [RPL16B],3.31 ± 0.1,3.38 ± 0.089,3.46 ± 0.055,3.36 ± 0.071
RKHTRGDVSSGLFEKST [BRN1],2.81 ± 0.16,3.27 ± 0.1,–,2.5 ± 0.14

Sequence,protein stability index (doa10∆),protein stability index (pdr5∆),protein stability index (ubr1∆),protein stability index (san1∆)
ELVIRLEKDAADCQAEL [YIL149C/MLP2],2.93 ± 0.25,3.05 ± 0.18,3.07 ± 0.22,3.18 ± 0.22
PRGLRSLTTVWAEHLSD [RPL3],2.74 ± 0.12,2.83 ± 0.17,2.72 ± 0.16,–
PLSNIKALLFFNNEKET [RPN12],1.46 ± 0.056,1.4 ± 0.062,1.13 ± 0.053,1.2 ± 0.088
TNAPLRTLNIQPEVAVK [YIL149C/MLP2],2.08 ± 0.051,2.03 ± 0.048,2.23 ± 0.042,1.65 ± 0.096
KKRMNSNQERCHDEGND [RRI1],3.24 ± 0.064,3.01 ± 0.068,3.13 ± 0.061,3.06 ± 0.071
MYQEWEDETVKVAQLRQ [NSL1],3.63 ± 0.085,3.47 ± 0.076,3.5 ± 0.07,3.372 ± 0.032
EDEAALAKLVSTIDANF [RPL8A],2.91 ± 0.065,3.02 ± 0.068,2.85 ± 0.05,2.66 ± 0.062
IADLASLEQLLGMMYEQ [YCS4],3.18 ± 0.1,2.6 ± 0.067,2.65 ± 0.031,2.6 ± 0.074
FSNKYLELCKLASNNLE [RRI2],1.95 ± 0.054,2.1 ± 0.039,2.02 ± 0.043,2.02 ± 0.068
SSGAGTVKLYLPEILNV [ECM29],1.45 ± 0.065,1.72 ± 0.055,1.47 ± 0.066,2.02 ± 0.075
ILNDSLIYHLKDCAEVD [IRR1],2.05 ± 0.056,2.28 ± 0.06,1.71 ± 0.046,2.02 ± 0.09
YRMKGGRVTFIPLNRLS [SMC3],1.46 ± 0.14,1.15 ± 0.099,1.36 ± 0.13,1.07 ± 0.24
YDRQLSSLFLDGLEKAA [FAS2],2.96 ± 0.084,2.93 ± 0.074,2.95 ± 0.079,2.79 ± 0.095
IFEKELMYQIKKECALL [SRB4],2.87 ± 0.28,3.2 ± 0.21,3.44 ± 0.19,2.61 ± 0.26
EEWLNTKDPDEQQLFEI [CSN9],3.06 ± 0.11,3.16 ± 0.12,3.15 ± 0.075,3.24 ± 0.051
LTIGVKFFMKHGLILEL [SRB5],1.71 ± 0.05,1.62 ± 0.052,1.94 ± 0.033,1.65 ± 0.062
FTLTYDIIETFSSKRKT [YMR129W/POM152],1.88 ± 0.05,2.07 ± 0.064,2.33 ± 0.056,1.69 ± 0.077
DVAAKCKEVGITAVHVK [RPS14A],2.56 ± 0.057,2.81 ± 0.065,2.62 ± 0.041,2.72 ± 0.062
EILNLSTQELQTRAKLL [RPT5],–,2.18 ± 0.18,3.08 ± 0.085,3.04 ± 0.091
KEPPRDRKKDKNVKHSG [RPL12A],3.29 ± 0.09,3.12 ± 0.084,3.17 ± 0.061,3.22 ± 0.067
LAFNYITYDKQEPSASQ [SRP68],3.19 ± 0.048,3.15 ± 0.056,2.93 ± 0.037,2.97 ± 0.056
EITHPPSTTDDENGDKN [SWI3],3.09 ± 0.074,3.07 ± 0.072,3.31 ± 0.061,3.19 ± 0.055
HILRISFLDRKRAKEFI [SIN4],2.42 ± 0.079,2.67 ± 0.078,2.4 ± 0.049,2.05 ± 0.063
PLLSKKERLVRDKKEKK [SMB1],3.37 ± 0.24,3 ± 0.11,3.15 ± 0.17,2.72 ± 0.18
KEIMDKIITSRPLQKIM [SIN4],2.13 ± 0.12,1.23 ± 0.068,1.06 ± 0.065,1.45 ± 0.18
